T1: sIL-6R (soluble IL-6 receptor; SBH Sciences) (human, UniProt P08887 20-365)
T1 construct: also called human IL-6R
T1 sequence: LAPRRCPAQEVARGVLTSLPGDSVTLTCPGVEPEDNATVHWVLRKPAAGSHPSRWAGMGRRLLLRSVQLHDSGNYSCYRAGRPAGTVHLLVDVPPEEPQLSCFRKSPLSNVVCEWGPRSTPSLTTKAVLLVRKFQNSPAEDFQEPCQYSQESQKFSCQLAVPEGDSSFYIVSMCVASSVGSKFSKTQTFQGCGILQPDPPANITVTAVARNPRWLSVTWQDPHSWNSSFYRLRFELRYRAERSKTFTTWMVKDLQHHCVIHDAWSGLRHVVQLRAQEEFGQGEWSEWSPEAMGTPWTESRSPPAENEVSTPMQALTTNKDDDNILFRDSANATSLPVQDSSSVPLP


target: T1, sIL-6R (soluble IL-6 receptor; SBH …); assay: SPR (BIAcore 3000), antibody on chip, sIL-6R analyte, 25 C
Description: All SPR measurements were performed on a BIAcore 3000 instrument (GE Biosciences, Piscataway, N.J.). BIAcore Software-BIAcore 3000 Control Software V3.2 was used for the operation and control of the BIAcore 3000 instrument. BiaEvaluation Software V4.1 was used for the analysis of SPR data from the BIAcore 3000 instrument and data was plotted using Graph Pad Prism Software Version 5. […] The indicated antibodies were used as the ligand for the construction of the reference channel of the chip. […] Each sample was injected for 3 min at a flow rate of 30 μL/min to allow for binding to chip-bound antibody. Next, binding buffer without analyte was sent over the chip at the same flow rate to allow for dissociation of bound analyte. After 500s, remaining bound analyte was removed by injecting regeneration solution (1M Formic acid). Data was analyzed by using the Kinetics Wizard and the manual fitting programs that are both included with the BiaEvaluation Software V4.1.

Kd | Relative Affinity | koff | kon | Binder
1.86 nM | 1.7 fold vs 25 (Tocilizumab) | 0.000199 s⁻¹ | 107000 M⁻¹ s⁻¹ | 52# (antibody, human IgG1, kappa, V domains shown, also called Sample # 52) VH: QVQLQESGPGLVRPSQTLSLTCTVSGYSITSDHAWSWVRQPPGRGLEWIGYISYSGITTYNPSLKSRVTMLRDTSKNQFSLRLSSVTAADTAVYYCARSLARTTAIDFWGQGSLVTVSS VL: DIQMTQSPSSLSASVGDRVTITCRASQDISSYLNWYQQKPGKAPKLLIYYTSRLHSGVPSRFSGSGSGTDFTFTISSLQPEDIATYYCQQGNTLPYTFGQGTKVEIKR
0.581 nM | 5.4 fold vs 25 (Tocilizumab) | 0.000109 s⁻¹ | 188000 M⁻¹ s⁻¹ | 217# (antibody, human IgG1, kappa, V domains shown, also called Sample # 217) VH: QVQLQESGPGLVRPSQTLSLTCTVSGYSITSDHAWSWVRQPPGRGLEWIGYISYSGMITYNPSLKSRVTMLRDTSKNQFSLRLSSVTAADTAVYYCARCLARMTAMDYWGQGSLVTVSS VL: DIQMTQSPSSLSASVGDRVTITCRASQDISSYLNWYQQKPGKAPKLLIYYTSRLHSGVPSRFSGSGSGTDFTFTISSLQPEDIATYYCQQGNTLPYTFGQGTKVEIKR
0.286 nM | 11 fold vs 25 (Tocilizumab) | 4.14e-05 s⁻¹ | 145000 M⁻¹ s⁻¹ | 69# (antibody, human IgG1, kappa, V domains shown, also called Sample # 69) VH: QVQLQESGPGLVRPSQTLSLTCTVSGYSITSDHAWSWVRQPPGRGLEWIGFISYSGMTTYNPSLKSRVTMLRDTSKNQFSLRLSSVTAADTAVYYCARCLARTTAIDFWGQGSLVTVSS VL: DIQMTQSPSSLSASVGDRVTITCRASQDISSYLNWYQQKPGKAPKLLIYYTSRLHSGVPSRFSGSGSGTDFTFTISSLQPEDIATYYCQQGNTLPYTFGQGTKVEIKR
0.621 nM | 5.1 fold vs 25 (Tocilizumab) | 6.63e-05 s⁻¹ | 107000 M⁻¹ s⁻¹ | 218# (antibody, human IgG1, kappa, V domains shown) VH: QVQLQESGPGLVRPSQTLSLTCTVSGYSITSDHAWSWVRQPPGRGLEWIGYISYSGMITYNPSLKSRVTMLRDTSKNQFSLRLSSVTAADTAVYYCARCLARMTAIDFWGQGSLVTVSS VL: DIQMTQSPSSLSASVGDRVTITCRASQDISSYLNWYQQKPGKAPKLLIYYTSRLHSGVPSRFSGSGSGTDFTFTISSLQPEDIATYYCQQGNTLPYTFGQGTKVEIKR
1.83 nM | 1.7 fold vs 25 (Tocilizumab) | 0.000266 s⁻¹ | 145000 M⁻¹ s⁻¹ | 216# (antibody, human IgG1, kappa, V domains shown, also called Sample # 216) VH: QVQLQESGPGLVRPSQTLSLTCTVSGYSITSDHAWSWVRQPPGRGLEWIGYISYSGMITYNPSLKSRVTMLRDTSKNQFSLRLSSVTAADTAVYYCARSLARTTAIDFWGQGSLVTVSS VL: DIQMTQSPSSLSASVGDRVTITCRASQDISSYLNWYQQKPGKAPKLLIYYTSRLHSGVPSRFSGSGSGTDFTFTISSLQPEDIATYYCQQGNTLPYTFGQGTKVEIKR
0.286 nM | 11 fold vs 25 (Tocilizumab) | 3.66e-05 s⁻¹ | 128000 M⁻¹ s⁻¹ | 222# (antibody, human IgG1, kappa, V domains shown, also called Sample # 222) VH: QVQLQESGPGLVRPSQTLSLTCTVSGYSITSDHAWSWVRQPPGRGLEWIGYISYSGMITYNPSLKSRVTMLRDTSKNQFSLRLSSVTAADTAVYYCARCLARMTAMDYWGQGSLVTVSS VL: DIQMTQSPSSLSASVGDRVTITCRASQDISSYLNWYQQKPGKAPKLLIYYTSRLHSGVPSRFSGSGSGTDFTFTISSLQPEDIATYYCGQGNRLPYTFGQGTKVEIKR
1.03 nM | 3.1 fold vs 25 (Tocilizumab) | 0.000161 s⁻¹ | 157000 M⁻¹ s⁻¹ | 215# (antibody, human IgG1, kappa, V domains shown) VH: QVQLQESGPGLVRPSQTLSLTCTVSGYSITSDHAWSWVRQPPGRGLEWIGYISYSGMITYNPSLKSRVTMLRDTSKNQFSLRLSSVTAADTAVYYCARSLARMTAMDYWGQGSLVTVSS VL: DIQMTQSPSSLSASVGDRVTITCRASQDISSYLNWYQQKPGKAPKLLIYYTSRLHSGVPSRFSGSGSGTDFTFTISSLQPEDIATYYCQQGNTLPYTFGQGTKVEIKR
0.102 nM | 31 fold vs 25 (Tocilizumab) | 1.6e-05 s⁻¹ | 156000 M⁻¹ s⁻¹ | 226# (antibody, human IgG1, kappa, V domains shown) VH: QVQLQESGPGLVRPSQTLSLTCTVSGYSITSDHAWSWVRQPPGRGLEWIGYISYSGMITYNPSLKSRVTMLRDTSKNQFSLRLSSVTAADTAVYYCARCLARATAMDYWGQGSLVTVSS VL: DIQMTQSPSSLSASVGDRVTITCRASQDISSYLNWYQQKPGKAPKLLIYYTSRLHSGVPSRFSGSGSGTDFTFTISSLQPEDIATYYCQQGNTLPYTFGQGTKVEIKR
0.387 nM | 8.2 fold vs 25 (Tocilizumab) | 7.24e-05 s⁻¹ | 187000 M⁻¹ s⁻¹ | 55# (antibody, human IgG1, kappa, V domains shown, also called Sample # 55) VH: QVQLQESGPGLVRPSQTLSLTCTVSGYSITSDHAWSWVRQPPGRGLEWIGFISYSGMITYNPSLKSRVTMLRDTSKNQFSLRLSSVTAADTAVYYCARCLARTTAMDYWGQGSLVTVSS VL: DIQMTQSPSSLSASVGDRVTITCRASQDISSYLNWYQQKPGKAPKLLIYYTSRLHSGVPSRFSGSGSGTDFTFTISSLQPEDIATYYCQQGNTLPYTFGQGTKVEIKR
0.5 nM | 6.3 fold vs 25 (Tocilizumab) | 7.99e-05 s⁻¹ | 160000 M⁻¹ s⁻¹ | 224# (antibody, human IgG1, kappa, V domains shown) VH: QVQLQESGPGLVRPSQTLSLTCTVSGYSITSDHAWSWVRQPPGRGLEWIGYISYSGMTTYNPSLKSRVTMLRDTSKNQFSLRLSSVTAADTAVYYCARCLARTTAMDYWGQGSLVTVSS VL: DIQMTQSPSSLSASVGDRVTITCRASQDISSYLNWYQQKPGKAPKLLIYYTSRLHSGVPSRFSGSGSGTDFTFTISSLQPEDIATYYCQQGNTLPYTFGQGTKVEIKR
0.663 nM | 4.8 fold vs 25 (Tocilizumab) | 9.01e-05 s⁻¹ | 136000 M⁻¹ s⁻¹ | 221# (antibody, human IgG1, kappa, V domains shown) VH: QVQLQESGPGLVRPSQTLSLTCTVSGYSITSDHAWSWVRQPPGRGLEWIGYISYSGMITYNPSLKSRVTMLRDTSKNQFSLRLSSVTAADTAVYYCARSLARTTAIDFWGQGSLVTVSS VL: DIQMTQSPSSLSASVGDRVTITCRASQDISSYLNWYQQKPGKAPKLLIYYTSRLHSGVPSRFSGSGSGTDFTFTISSLQPEDIATYYCGQGNRLPYTFGQGTKVEIKR
0.368 nM | 8.6 fold vs 25 (Tocilizumab) | 4.91e-05 s⁻¹ | 133000 M⁻¹ s⁻¹ | 223# (antibody, human IgG1, kappa, V domains shown, also called Sample # 223) VH: QVQLQESGPGLVRPSQTLSLTCTVSGYSITSDHAWSWVRQPPGRGLEWIGYISYSGMITYNPSLKSRVTMLRDTSKNQFSLRLSSVTAADTAVYYCARCLARMTAIDFWGQGSLVTVSS VL: DIQMTQSPSSLSASVGDRVTITCRASQDISSYLNWYQQKPGKAPKLLIYYTSRLHSGVPSRFSGSGSGTDFTFTISSLQPEDIATYYCGQGNRLPYTFGQGTKVEIKR
0.483 nM | 6.5 fold vs 25 (Tocilizumab) | 6.34e-05 s⁻¹ | 131000 M⁻¹ s⁻¹ | 220# (antibody, human IgG1, kappa, V domains shown, also called Sample # 220) VH: QVQLQESGPGLVRPSQTLSLTCTVSGYSITSDHAWSWVRQPPGRGLEWIGYISYSGMITYNPSLKSRVTMLRDTSKNQFSLRLSSVTAADTAVYYCARSLARMTAMDYWGQGSLVTVSS VL: DIQMTQSPSSLSASVGDRVTITCRASQDISSYLNWYQQKPGKAPKLLIYYTSRLHSGVPSRFSGSGSGTDFTFTISSLQPEDIATYYCGQGNRLPYTFGQGTKVEIKR
0.645 nM | 4.9 fold vs 25 (Tocilizumab) | 0.000105 s⁻¹ | 163000 M⁻¹ s⁻¹ | 225# (antibody, human IgG1, kappa, V domains shown) VH: QVQLQESGPGLVRPSQTLSLTCTVSGYSITSDHAWSWVRQPPGRGLEWIGYISYSGMITYNPSLKSRVTMLRDTSKNQFSLRLSSVTAADTAVYYCARCLARTTAMDYWGQGSLVTVSS VL: DIQMTQSPSSLSASVGDRVTITCRASQDISSYLNWYQQKPGKAPKLLIYYTSRLHSGVPSRFSGSGSGTDFTFTISSLQPEDIATYYCQQGNTLPYTFGQGTKVEIKR
0.369 nM | 8.7 fold vs 25 (Tocilizumab) | 4.69e-05 s⁻¹ | 127000 M⁻¹ s⁻¹ | 214# (antibody, human IgG1, kappa, V domains shown) VH: QVQLQESGPGLVRPSQTLSLTCTVSGYSITSDHAWSWVRQPPGRGLEWIGYISYSGITTYNPSLKSRVTMLRDTSKNQFSLRLSSVTAADTAVYYCARCLARMTAIDFWGQGSLVTVSS VL: DIQMTQSPSSLSASVGDRVTITCRASQDISSYLNWYQQKPGKAPKLLIYYTSRLHSGVPSRFSGSGSGTDFTFTISSLQPEDIATYYCQQGNTLPYTFGQGTKVEIKR
0.283 nM | 11.2 fold vs 25 (Tocilizumab) | 4.86e-05 s⁻¹ | 172000 M⁻¹ s⁻¹ | 59# (antibody, human IgG1, kappa, V domains shown, also called Sample # 59) VH: QVQLQESGPGLVRPSQTLSLTCTVSGYSITSDHAWSWVRQPPGRGLEWIGFISYSGMTTYNPSLKSRVTMLRDTSKNQFSLRLSSVTAADTAVYYCARCLARTTAMDYWGQGSLVTVSS VL: DIQMTQSPSSLSASVGDRVTITCRASQDISSYLNWYQQKPGKAPKLLIYYTSRLHSGVPSRFSGSGSGTDFTFTISSLQPEDIATYYCQQGNTLPYTFGQGTKVEIKR
0.491 nM | 6.4 fold vs 25 (Tocilizumab) | 5.96e-05 s⁻¹ | 121000 M⁻¹ s⁻¹ | 219# (antibody, human IgG1, kappa, V domains shown) VH: QVQLQESGPGLVRPSQTLSLTCTVSGYSITSDHAWSWVRQPPGRGLEWIGYISYSGITTYNPSLKSRVTMLRDTSKNQFSLRLSSVTAADTAVYYCARCLARMTAIDFWGQGSLVTVSS VL: DIQMTQSPSSLSASVGDRVTITCRASQDISSYLNWYQQKPGKAPKLLIYYTSRLHSGVPSRFSGSGSGTDFTFTISSLQPEDIATYYCGQGNRLPYTFGQGTKVEIKR
